B1: Hairpin Ribozyme (parent)
chain: GUCCUCUUUCACGUGCGCGUGAAAGAGAGAAGUGAACCAGAGAAACACACGUUGUGGUAUAUUACCUGGUA

Variants of: B1
Assay: self-cleavage, relative activity (ratio to wild type); higher = more cleavage; co-transcriptional

**Q.** Which self-cleavage does the source give for GUCCUCUUUCACGUGCGCUUGAAAGAGAGAAGUGAGCCAGAGAAACACACGUUGUGGUAUAUUACCUGGUA [G19U A36G] here?
**A.** 1

**Q.** With GUCCUCUUUCACGUGCGCUUGAAAGAGAGAAGUGACCCAGAGAAACACACGUUGUGGUAUAUUACCUGGUA [G19U A36C] as the variant, how does the self-cleavage read?
**A.** 0.554

**Q.** For GUCCUCUUUCACGUGCGCCUGAAAGAGAUAAGUGAACCAGAGAAACACACGUUGUGGUAUAUUACCUGGUA [G19C G29U], which self-cleavage is on record?
**A.** 0.159

**Q.** With GUCCUCUUUCACGUGCGCCUGAAAGAGAGAAGUGAACCAGAGAAACACACGUUGUGCUAUAUUACCUGGUA [G19C G57C] as the variant, how does the self-cleavage read?
**A.** 0.25

**Q.** For GUCCUCUUUCACGUGCGCCUGAAAGAGAGAAGUGAACCAGAGAAACACACGUUGUGUUAUAUUACCUGGUA [G19C G57U], which self-cleavage is on record?
**A.** 0.275

**Q.** For GUCCUCUUUCACGUGCGCUUGAAAGAGAGACGUGAACCAGAGAAACACACGUUGUGGUAUAUUACCUGGUA [G19U A31C], which self-cleavage is on record?
**A.** 0.0951

**Q.** Which self-cleavage does the source give for GUCCUCUUUCACGUGCGCCUGAAAGAGAGAAGUGAACCAGAGAAACACACAUUGUGGUAUAUUACCUGGUA [G19C G51A] here?
**A.** 0.903

**Q.** Which self-cleavage does the source give for GUCCUCUUUCACGUGCGCCUGAAAGAGAGAAGUGAACCAGAGAAACACACUUUGUGGUAUAUUACCUGGUA [G19C G51U] here?
**A.** 0.973

**Q.** For GUCCUCUUUCACGUGCGCCUGAAAGAGAGAAGUGAACCAGAGAAACACACCUUGUGGUAUAUUACCUGGUA [G19C G51C], which self-cleavage is on record?
**A.** 0.775

**Q.** Which self-cleavage does the source give for GUCCUCUUUCACGUGCGCCUGAAAGAGAGAAGUGAACCAGAGAAACACACGUGGUGGUAUAUUACCUGGUA [G19C U53G] here?
**A.** 0.566

**Q.** With GUCCUCUUUCACGUGCGCUUGAAAGAGGGAAGUGAACCAGAGAAACACACGUUGUGGUAUAUUACCUGGUA [G19U A28G] as the variant, how does the self-cleavage read?
**A.** 1

**Q.** With GUCCUCUUUCACGUGCGCCUGAAAGAGAGAAGUGAACCAGAGAAACACACGUUGUCGUAUAUUACCUGGUA [G19C G56C] as the variant, how does the self-cleavage read?
**A.** 0.124

**Q.** Which self-cleavage does the source give for GUCCUCUUUCACGUGCGCCUGAAAGAGAGAAGUGAACCAGAGAAACACACGUUGUGGUAUAGUACCUGGUA [G19C U62G] here?
**A.** 0.282

**Q.** With GUCCUCUUUCACGUGCGCCUGAAAGAGAGAAGUGAACCAGAGAAACACACGUUGUGGUAUAUUACCUGCUA [G19C G69C] as the variant, how does the self-cleavage read?
**A.** 0.369

**Q.** Which self-cleavage does the source give for GUCCUCUUUCACGUGCGCCUGAAAGAGAGAAGUGAACCAGAGAAACACACGUUGUGGUAUAUUACCUGAUA [G19C G69A] here?
**A.** 0.403

**Q.** For GUCCUCUUUCACGUGCGCCUGAAAGAGAGAAGAGAACCAGAGAAACACACGUUGUGGUAUAUUACCUGGUA [G19C U33A], which self-cleavage is on record?
**A.** 0.125

**Q.** For GUCCUCUUUCACGUGCGCCUGAAAGAGAGAAGCGAACCAGAGAAACACACGUUGUGGUAUAUUACCUGGUA [G19C U33C], which self-cleavage is on record?
**A.** 0.173

**Q.** With GUCCUCUUUCACGUGCGCCUGAAAGAGAGAAGUGAACCAGAGAAACACACGUUGGGGUAUAUUACCUGGUA [G19C U55G] as the variant, how does the self-cleavage read?
**A.** 0.335

**Q.** Which self-cleavage does the source give for GUCCUCUUUCACGUGCGCCUGAAAGAGAGAAGUGAACCAGAGAAACACACGUUGAGGUAUAUUACCUGGUA [G19C U55A] here?
**A.** 0.17

**Q.** Which self-cleavage does the source give for GUCCUCUUUCACGUGCGCCUGAAAGAGAGAAGUGAACCAGAGAAACACACGCUGUGGUAUAUUACCUGGUA [G19C U52C] here?
**A.** 0.775

**Q.** For GUCCUCUUUCACGUGCGCCUGAAAGAGAGAAUUGAACCAGAGAAACACACGUUGUGGUAUAUUACCUGGUA [G19C G32U], which self-cleavage is on record?
**A.** 0.173

**Q.** Which self-cleavage does the source give for GUCCUCUUUCACGUGCGCCUGAAAGAGAGAAGUUAACCAGAGAAACACACGUUGUGGUAUAUUACCUGGUA [G19C G34U] here?
**A.** 1.45

**Q.** For GUCCUCUUUCACGUGCGCCUGAAAGAGAGAAGUGAACCAGAGAAACACACGUUAUGGUAUAUUACCUGGUA [G19C G54A], which self-cleavage is on record?
**A.** 0.432

**Q.** Which self-cleavage does the source give for GUCCUCUUUCACGUGCGCCUGAAAGAGAGAAGUGAACCAGAGAAACACACGUUGUGGUAUAUUACCUGGCA [G19C U70C] here?
**A.** 0.879

**Q.** For GUCCUCUUUCACGUGCGCCUGAAAGAGAGAAGUGAACCAGAGAAACACACGUUGUGGUAUAUUACCUGGGA [G19C U70G], which self-cleavage is on record?
**A.** 0.695

**Q.** Which self-cleavage does the source give for GUCCUCUUUCACGUGCGCCAGAAAGAGAGAAGUGAACCAGAGAAACACACGUUGUGGUAUAUUACCUGGUA [G19C U20A] here?
**A.** 0.965

**Q.** Which self-cleavage does the source give for GUCCUCUUUCACGUGCGCCCGAAAGAGAGAAGUGAACCAGAGAAACACACGUUGUGGUAUAUUACCUGGUA [G19C U20C] here?
**A.** 0.809

**Q.** For GUCCUCUUUCACGUGCGCCGGAAAGAGAGAAGUGAACCAGAGAAACACACGUUGUGGUAUAUUACCUGGUA [G19C U20G], which self-cleavage is on record?
**A.** 1.05

**Q.** For GUCCUCUUUCACGUGCGCUUGAAAGAGAGAAGUGGACCAGAGAAACACACGUUGUGGUAUAUUACCUGGUA [G19U A35G], which self-cleavage is on record?
**A.** 1.06

**Q.** Which self-cleavage does the source give for GUCCUCUUUCACGUGCGCUUGAAAGAGAGAAGUGUACCAGAGAAACACACGUUGUGGUAUAUUACCUGGUA [G19U A35U] here?
**A.** 0.626

**Q.** Which self-cleavage does the source give for GUCCUCUUUCACGUGCGCCUAAAAGAGAGAAGUGAACCAGAGAAACACACGUUGUGGUAUAUUACCUGGUA [G19C G21A] here?
**A.** 0.657

**Q.** With GUCCUCUUUCACGUGCGCCUGAAAGAGAGAAGUGAACCAGAGAAACACACGUUGUGGUAUAUUACUUGGUA [G19C C66U] as the variant, how does the self-cleavage read?
**A.** 0.528

**Q.** Which self-cleavage does the source give for GUCCUCUUUCACGUGCGCCUGAAAGAGAGAAGUGAACCAGAGAAACACACGUUGUGGUAUAUUACAUGGUA [G19C C66A] here?
**A.** 0.238

**Q.** With GUCCUCUUUCACGUGCGCCUGAAAGAGAGAAGUGAACCAGAGAAACACACGUUGUGGUAUAUUACCUUGUA [G19C G68U] as the variant, how does the self-cleavage read?
**A.** 0.213

**Q.** For GUCCUCUUUCACGUGCGCUUGAUAGAGAGAAGUGAACCAGAGAAACACACGUUGUGGUAUAUUACCUGGUA [G19U A23U], which self-cleavage is on record?
**A.** 0.944

**Q.** With GUCCUCUUUCACGUGCGCUUGACAGAGAGAAGUGAACCAGAGAAACACACGUUGUGGUAUAUUACCUGGUA [G19U A23C] as the variant, how does the self-cleavage read?
**A.** 0.666

**Q.** With GUCCUCUUUCACGUGCGCCUGAAAGAGAGAAGUGAACCACAGAAACACACGUUGUGGUAUAUUACCUGGUA [G19C G40C] as the variant, how does the self-cleavage read?
**A.** 0.191

**Q.** Which self-cleavage does the source give for GUCCUCUUUCACGUGCGCCUGAAACAGAGAAGUGAACCAGAGAAACACACGUUGUGGUAUAUUACCUGGUA [G19C G25C] here?
**A.** 0.46

— the RNAGym collection of RNA variant scans (doi:10.7554/elife.80360)
